From patent US6875741
No end group written: not given here.

What was measured:
[1] = molecular target: insulin receptor prepared according to Bass et al., 1996 (soluble IR) (human) (UniProt P06213); assay: phage ELISA; A405 on IR / A405 on non-fat milk
[2] = molecular target: soluble IGF-1R (UniProt P08069); assay: phage ELISA; A405 on IGF-1R / A405 on non-fat milk
[3] = molecular target: soluble IGF-1R (UniProt P08069); assay: phage ELISA; IGF-1R ratio over background divided by IR ratio
[4] = molecular target: insulin receptor prepared according to Bass et al., 1996 (soluble IR) (human) (UniProt P06213); assay: phage ELISA; IR ratio over background divided by IGF-1R ratio
[5] = molecular target: soluble human insulin receptor-immunoglobulin heavy chain chimera (human) (UniProt P06213); assay: phage ELISA ratios compared
[6] = molecular target: soluble human insulin receptor-immunoglobulin heavy chain chimera (human) (UniProt P06213); assay: phage ELISA over milk background
[7] = molecular target: soluble human insulin receptor-immunoglobulin heavy chain chimera (human), P06213; assay: ratio of IC50 on rhIGF-1R (TR-FRET vs b-20E2) to IC50 on sIR-Fc (FP vs FITC-RP9); conditions: remark: other sources report otherwise

Row | Binder | ratio over background (fold over background) [1] | ratio over background (fold over background) [2] | IGF-1R/IR ratio comparison [3] | IR/IGF-1R ratio comparison [4] | IR/IGF-1R ratio comparison [5] | ratio over background [6] | Binding Ratio IGF-1R/IR [7]
1 | DYKDAETSAQVGWQRLWSVWPGDHWSTLDPFYHKLSELLRESGAAAAGAP (peptide, not shown: large carriers) [B6L-3-G5-IR] | 1.4 | 2 | 1.4 | 0.7 |  |  | 
2 | DYKDGCITAENGAGDPFYHKLSELGGCSAAAGAP (peptide, not shown: large carriers) [B6Hα-1-B3-IR] | 1.1 | 3.2 | 2.9 | 0.3 |  |  | 
3 | GCVVEWQKWHGASDPFYHKLSELGGCS [B6Hα-3-F10-IR] |  |  |  |  | 0.2 | 1.9 | 
4 | RGMKEEVLVGGSTDPFYHKLSELLQGS [B6Hα-3-F11-IR] |  |  |  |  | 0.1 | 1.6 | 
5 | DYKDGLDHSDAVGVHLGFAWPAQARGRWEAGGLEDTWAGYDWLAAAGAP (peptide, not shown: large carriers) [40F-4-B1-IGFR] | 0.2 | 3 |  |  |  |  | 
6 | QPDHSYFYSLLQELVGSEERL [20E2B-4-F9-IGFR] |  |  |  |  | 0.1 | 1.9 | 
7 | DYKDGHYFGSFYDAIDQLVAGMLPGAAAGAP (peptide, not shown: large carriers) [20E2A-3-A3-IGFR] | 1.5 | 3 |  |  |  |  | 
8 | RGAVAGFHDQFYDWFDRQVSRVHKFG [H2CA-4-H9-IGFR] |  |  |  |  | 0.3 | 1.9 | 
9 | DYKDCGAKMTGTPNDPFYHKLSELLQRGAAAGAP (peptide, not shown: large carriers) [B6Hα-3-E6-IR] | 1.2 | 2.3 | 1.9 | 0.5 |  |  | 
10 | SSYGCDGFYLMLFSLGLVASQELEC [20C-3-A1-IGFR] |  |  |  |  | 0.1 | 1.5 | 
11 | DYKDQSGSGDFYDWLSRLIRGNGDGAAAGAP (peptide, not shown: large carriers) [20E2Bβ-3-C7-IR] | 1.5 | 3.1 | 2 | 0.5 |  |  | 
12 | RCEEKQAEVGPSSDPFYHKMSELLGCR [B6Hα-3-E9-IR] |  |  |  |  | 0.1 | 1.7 | 
13 | DYKDAGSVTSFYDAMEQLVATGTSAAAAGAP (peptide, not shown: large carriers) [20E2A-3-A4-IGFR] | 1.8 | 2.5 | 1.4 |  |  |  | 

Further lines, results first:

Row | ratio over background (fold over background) [1] | ratio over background (fold over background) [2] | IGF-1R/IR ratio comparison [3] | IR/IGF-1R ratio comparison [4] | IR/IGF-1R ratio comparison [5] | ratio over background [6] | Binding Ratio IGF-1R/IR [7] | Binder
14 | 0.3 | 4.6 | 13.1 | 0.1 |  |  |  | DYKDLSCLAYSRHGIWRPSTDLGLGRSVGEGSVSTRWRGYDWFEAAAGAP (peptide, not shown: large carriers) [40F-4-D1-IGFR]
15 | 1.9 | 3.4 | 1.8 |  |  |  |  | DYKDAGTPAQVGXNRLWSVWPGEHWNTVDPFYNKLSELLRESGAAAAGAP (peptide, not shown: large carriers, not fully specified; X: residue not identified in the source) [B6L-4-A7-IR]
16 |  |  |  |  | 0.1 | 1.8 |  | QPAPDGFYSALMKLIGRGGVS [20E2B-3-C8-IGFR]
17 |  |  |  |  |  |  | 0.19 | CWARPCGDAANFYDWFVQQAS [C1 (D112)]
18 |  |  |  |  | 0.1 | 1.8 |  | YRGMLVLGRSSDGAGKVAFERPARIGQTVFAVNFYDWFV [A6L-0-E6-IR]
19 | 1.3 | 3.3 | 2.6 | 0.4 |  |  |  | DYKDMNVFVSFYDAIDQLVCQRIGCAAAGAP (peptide, not shown: large carriers) [20E2A-4-G11-IGFR]
20 | 1 | 3 |  |  |  |  |  | DYKDSSETAKMVTGTRDDPFYHKLSELVQGSAAAGAP (peptide, not shown: large carriers) [B6Hα-2-D8-IR]
21 |  |  |  |  | 0.1 | 1.6 |  | GGTEVDFYRALERLVRGQLGL [20E2B-3-D8-IGFR]
22 | 1.3 | 2.4 | 1.8 | 0.5 |  |  |  | DYKDCSMAAVAEAGDDDDPFYHKLSELCQGSAAAGAP (peptide, not shown: large carriers) [B6Hα-3-F1-IR]
23 |  |  |  |  | 0.1 | 2 |  | YRGMLVLGRISGGAGKAASERPARIGQKVSAVNFYDWFV [A6L-0-H3-IR]
24 |  |  |  |  | 0.2 | 1.8 |  | IIGGFYSYFNSVLRLGT [NNRPγ-4-A1-IR]
25 |  |  |  |  | 0.1 | 1.5 |  | LRIANLFYQRLWDLAFGGGG [20E2B-3-E8-IGFR]
26 | 1 | 3.1 | 3.1 | 0.3 |  |  |  | DYKDSRVAATKEKRPSDDPFYHKLSELLQGSAAAGAP (peptide, not shown: large carriers) [B6Hα-3-F7-IR]
27 |  |  |  |  | 0.3 | 1.8 |  | MMVVDGFYDALHQLVVAQSLG [20E2A-3-D10-IGFR]
28 |  |  |  |  | 0.3 | 1.7 |  | GGTKAVAKVGTRDDPFYHKLSELLQGS [B6Hα-4-G8-IR]
29 | 1.8 | 2.5 | 1.4 |  |  |  |  | DYKDVDTPAQVGWNRLWSVGPGEHWYTDDPFYHXLSELLRESGAAAAGAP (peptide, not shown: large carriers, not fully specified; X: residue not identified in the source) [B6L-3-G6-IR]
30 | 1 | 2.9 | 2.9 | 0.3 |  |  |  | DYKDRCGDEEGWQENRRDDPFYHKLSELFGGCAAAGAP (peptide, not shown: large carriers) [B6Hα-3-E5-IR]
31 |  |  |  |  | 0.1 | 1.6 |  | LQPCSGFYECIERLIGVKLSG [20E2Bβ-4-G7-IR]
